# Assay results as given in US7479480B2, “Peptides that promote lipid efflux” (Lipid Sciences, Inc., priority 2006, dated 2009).
# Ends that are not written are not given here.
# Key:
# [1] = system: ApoE knockout and LDL receptor knockout mice; experiment: Aortic atherosclerosis in ApoE and LDL receptor knockout mice (Example 14); assay type: in vivo, mouse; conditions: 30 mg/kg ip three times per week, 4-5 or 8-10 weeks
# Procedure: The mice receive 3 injections per week for either 4-6 or 8-10 weeks. After the completion of the injection, the amount of hardening of the arteries or atherosclerosis is determined in the control injected animals and peptide injected animals to determine if the injections of the synthetic peptide decreased development of atherosclerosis.
# For infusion studies B and C, mice are injected ip with either placebo or a synthetic peptide of the present invention (30 mg/kg) three times per week for either 4 to 5 weeks (Infusion Study B) or 8 to 10 weeks (Infusion Study C). Blood for lipid and lipoprotein analyses is obtained at the beginning of the study (day 0) and every two weeks after placebo/peptide injection and at the completion of the study. At the completion of the study (4 to 5 weeks for Infusion Study B and 8 to 10 weeks for Infusion Study C), the animals are sacrificed, organs harvested for analyses of cholesterol content and for aortic atherosclerosis.
# No more than 300 ul blood every two weeks is obtained from each mouse. • 4) At the end of Infusion Study B and C all mice are sacrificed by cervical dislocation following isoflurane anesthesia and organs are harvested for analyses of cholesterol as well as aortic atherosclerosis. Before intraperitoneal injections, brief inhaled analgesia is obtained by isoflurane utilizing the E-Z Rodent Anesthesia System in the procedure room. […]
# ABCA1 = molecular target: T1, ABCA1 (Mus musculus, UniProt P41233); experiment: ABCA1 mediated cholesterol efflux; assay type: cell-based; set-up: +ABCA1 Cells / −ABCA1 Cells: unit not given here; conditions: for cholesterol efflux via the ABCA-I pathway: Example 17, J774 macrophages; for +ABCA1 Cells / −ABCA1 Cells / ABCA1 Mediated Efflux % Per 4 h: minus blank; for dose dependence of cholesterol efflux from cells containing the ABCA1 pathway (FIG. 3): range of 5 ug/ml to 30 ug/ml; for efflux of cholesterol from J774 macrophage cells (ABCA1 pathway): result in words
# T1 construct: endogenous in cells; host or cells: J774 mouse macrophage cells
# Description: (§1) The methods employed in this study have been described in U.S. Pat. Nos. 7,029,863, 7,060,452, U.S. Patent Application Publication No. 2005/0191715, and in Moya et al., Arteriosclerosis & Thrombosis 1994:14:1056-1065 and Liu et al., J. Biol. Chem., 2003:278(44), 42976-42984. SR-B1 mediated cholesterol efflux was examined in FU5AH rat hepatoma cells and ABCA1 mediated cholesterol efflux was examined in J774 mouse macrophage cells as described in these references.
# (§2) J774 macrophages and Fu5AH […] in culture were used to determine the specificity of SEQ ID NO: 602 to efflux cholesterol by the ABCA-I or SRBI pathways using the methods of de la Llera Moya, M., V., et al. “A cell culture system for screening human serum for ability to promote cellular cholesterol efflux. Relations between serum components and efflux, esterification, and transfer.” Arterioscler. Thromb. 14: 1056-1065 (1994). Anti-inflammatory properties were evaluated by determination of inhibition of expression of activated CD11B human monocytes and suppression of cytokine-induced vascular cell adhesion molecule-1, V-CAM, expression in human coronary artery endothelial cells (HCAECs).
# [2] = system: vascular cell adhesion molecule-1; experiment: Cytokine-induced V-CAM expression in human coronary artery endothelial cells; assay type: cell-based; conditions: initial data; p<0.05
# Procedure: as §2
# SR-B1 = molecular target: T2, SR-B1 (Rattus norvegicus, UniProt P97943); experiment: SR-BI mediated cholesterol efflux; assay type: cell-based; conditions: for SR-BI Mediated Efflux % Per 4 h: minus blank; for cholesterol efflux from the Fu5AH cells (SRB1 pathway): result in words
# T2 construct: endogenous in cells; host or cells: Fu5AH rat hepatoma cells
# T2 sequence (P97943 1-509): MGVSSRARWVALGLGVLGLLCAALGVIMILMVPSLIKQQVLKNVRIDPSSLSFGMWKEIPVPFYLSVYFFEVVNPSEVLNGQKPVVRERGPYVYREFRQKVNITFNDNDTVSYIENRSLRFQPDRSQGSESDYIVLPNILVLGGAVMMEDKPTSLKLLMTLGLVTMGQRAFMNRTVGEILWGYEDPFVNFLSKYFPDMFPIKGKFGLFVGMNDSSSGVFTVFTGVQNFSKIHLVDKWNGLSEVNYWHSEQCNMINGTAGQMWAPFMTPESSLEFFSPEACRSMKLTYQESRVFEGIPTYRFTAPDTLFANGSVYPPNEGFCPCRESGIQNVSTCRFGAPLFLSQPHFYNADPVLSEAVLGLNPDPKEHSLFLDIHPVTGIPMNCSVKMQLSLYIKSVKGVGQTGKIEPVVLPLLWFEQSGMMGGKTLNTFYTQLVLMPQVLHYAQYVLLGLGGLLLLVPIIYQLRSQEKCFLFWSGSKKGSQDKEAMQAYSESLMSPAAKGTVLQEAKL
# Description: as §1, §2
# CD11b = CD11b expression in stimulated monocytes by flow cytometry; assay type: cell-based, human; conditions: for PMA-induced CD11b expression in human monocytes: 20 μg/ml, PMA 1 μmol/L, FIG. 2
# Procedure: Monocyte Isolation Peripheral whole blood (PWB) was drawn from healthy consenting individuals into syringes containing sodium citrate (final concentration—19.2 mM). Resting human monocytes were isolated from PWB by density centrifugation with Lymphoprep (Axis Shield). Mononuclear cells (MNCs) were collected and monocytes were further separated to purity using the Dynal negative isolation kit (Invitrogen). Monocytes were resuspended in phosphate buffered saline (PBS) and cell number was determined counting cell suspension on an automated hematology analyzer (Sysmex, KX-21N, USA).
# Flow Cytometry 100 μL of monocytes were stimulated with either 1 μmol/L phorbol-myristate-acetate (PMA) or 1 μg/ml lipopolysaccharide (LPS) (Sigma, Australia) in the presence or absence of apoA-1 (20 μg/ml), or 20 μg/ml of the test peptide SEQ ID NO: 602 (Ac-[…]NH2), each tested separately. The cells were incubated with the FITC conjugated antibody to either the active epitope of CD11b (eBiosciences, USA, Clone CBRM1/5) or total CD11b (Serotec, USA, Clone ICRF44) for 15 min at 37° C. Cells were then fixed with 4% para-formaldehyde. Samples were controlled for by using the appropriately matched isotype matched negative control (FITC-anti-mouse IgG) (Serotec, USA, Clone W3/25). CD11b expression was measured by flow cytometry using FACS Calibur (Becton Dickinson). Analysis was conducted using the Cell Quest Pro software.
# Statistical Analysis Values are presented as the mean±SD or percentage of control±SD. FACS results were analyzed for statistical significance using one-way ANOVA followed by Bonferroni post-hoc test. Significance was accepted at P<0.05.
# as §2
# [3] = system: HeLa cells transfected with only a hygromycin-resistant control plasmid; experiment: Cholesterol and phospholipid efflux from control cells; assay type: cell-based, human; conditions: result in words
# Procedure: (§3) HeLa cells stably transfected with human ABCA1 cDNA (ABCA1 cells) and HeLa cells transfected with only a hygromycin-resistant control plasmid (control cells) are produced and grown in α-modified Eagle's medium (aMEM) plus 10% fetal calf serum, as described by Remaley et al. (Biochem. Biophys. Res. Commun. 280:818-823, 2001). Cholesterol and phospholipid efflux is performed for 18 hours on noncholesterol-loaded cells radiolabeled with either cholesterol or choline (Remaley et al., Arterioscler. Thromb. Vasc. Biol. 17:1813-1821, 1997). Percentage efflux is calculated after subtracting the radioactive counts in the blank media (aMEM plus 1 mg/ml of BSA), and expressed as the percent of total radioactive counts removed from the cells during the efflux period.
# ABCA1 cells are used to assess the ability of apoA-I and synthetic peptides to efflux lipid from cells. […] The peptides of the present invention efflux approximately 2- to 4-fold more cholesterol and phospholipid from ABCA1 cells than from control cells. Both the peptides of the present invention and apoA-I began to show saturation for lipid efflux at approximately the same protein concentration of 10 μg/ml. The peptides of the present invention remove more cholesterol and phospholipids from control cells than apoA-I. […]
# [4] = system: HeLa cells stably transfected with human ABCA1 cDNA; experiment: Cholesterol and phospholipid efflux from ABCA1 cells; assay type: cell-based
# Procedure: as §3, with “Cholesterol and phospholipid efflux is performed for 18 hours on noncholesterol-loaded cells radiolabeled with either cholesterol or choline (Remaley et al., Arterioscler.” left out
# ABCA1 cells are used to assess the ability of apoA-I and synthetic peptides to efflux lipid from cells. […] The peptides of the present invention efflux approximately 2- to 4-fold more cholesterol and phospholipid from ABCA1 cells than from control cells. Both the peptides of the present invention and apoA-I began to show saturation for lipid efflux at approximately the same protein concentration of 10 μg/ml. The peptides of the present invention remove more cholesterol and phospholipids from control cells than apoA-I.
# Cholesterol efflux from ABCA1 cells to apoA-I is first detectable after 2 hours and increases throughout the 30 hour efflux period. […]
# [5] = J774 cells, peptides at 30 μg/ml
# [6] = J774 cells, peptides at 30 μg/ml, listed as 5
# [7] = J774 mouse macrophage cells, peptides at 30 μg/ml
# [8] = FU5AH rat hepatoma cells, peptides at 30 μg/ml
# [9] = J774 cells, peptides at 30 μg/ml, listed as 3
# [10] = controls: 2% human serum pool, Apo A-I @ 20 μg/ml
# T1 sequence (P41233 whole entry): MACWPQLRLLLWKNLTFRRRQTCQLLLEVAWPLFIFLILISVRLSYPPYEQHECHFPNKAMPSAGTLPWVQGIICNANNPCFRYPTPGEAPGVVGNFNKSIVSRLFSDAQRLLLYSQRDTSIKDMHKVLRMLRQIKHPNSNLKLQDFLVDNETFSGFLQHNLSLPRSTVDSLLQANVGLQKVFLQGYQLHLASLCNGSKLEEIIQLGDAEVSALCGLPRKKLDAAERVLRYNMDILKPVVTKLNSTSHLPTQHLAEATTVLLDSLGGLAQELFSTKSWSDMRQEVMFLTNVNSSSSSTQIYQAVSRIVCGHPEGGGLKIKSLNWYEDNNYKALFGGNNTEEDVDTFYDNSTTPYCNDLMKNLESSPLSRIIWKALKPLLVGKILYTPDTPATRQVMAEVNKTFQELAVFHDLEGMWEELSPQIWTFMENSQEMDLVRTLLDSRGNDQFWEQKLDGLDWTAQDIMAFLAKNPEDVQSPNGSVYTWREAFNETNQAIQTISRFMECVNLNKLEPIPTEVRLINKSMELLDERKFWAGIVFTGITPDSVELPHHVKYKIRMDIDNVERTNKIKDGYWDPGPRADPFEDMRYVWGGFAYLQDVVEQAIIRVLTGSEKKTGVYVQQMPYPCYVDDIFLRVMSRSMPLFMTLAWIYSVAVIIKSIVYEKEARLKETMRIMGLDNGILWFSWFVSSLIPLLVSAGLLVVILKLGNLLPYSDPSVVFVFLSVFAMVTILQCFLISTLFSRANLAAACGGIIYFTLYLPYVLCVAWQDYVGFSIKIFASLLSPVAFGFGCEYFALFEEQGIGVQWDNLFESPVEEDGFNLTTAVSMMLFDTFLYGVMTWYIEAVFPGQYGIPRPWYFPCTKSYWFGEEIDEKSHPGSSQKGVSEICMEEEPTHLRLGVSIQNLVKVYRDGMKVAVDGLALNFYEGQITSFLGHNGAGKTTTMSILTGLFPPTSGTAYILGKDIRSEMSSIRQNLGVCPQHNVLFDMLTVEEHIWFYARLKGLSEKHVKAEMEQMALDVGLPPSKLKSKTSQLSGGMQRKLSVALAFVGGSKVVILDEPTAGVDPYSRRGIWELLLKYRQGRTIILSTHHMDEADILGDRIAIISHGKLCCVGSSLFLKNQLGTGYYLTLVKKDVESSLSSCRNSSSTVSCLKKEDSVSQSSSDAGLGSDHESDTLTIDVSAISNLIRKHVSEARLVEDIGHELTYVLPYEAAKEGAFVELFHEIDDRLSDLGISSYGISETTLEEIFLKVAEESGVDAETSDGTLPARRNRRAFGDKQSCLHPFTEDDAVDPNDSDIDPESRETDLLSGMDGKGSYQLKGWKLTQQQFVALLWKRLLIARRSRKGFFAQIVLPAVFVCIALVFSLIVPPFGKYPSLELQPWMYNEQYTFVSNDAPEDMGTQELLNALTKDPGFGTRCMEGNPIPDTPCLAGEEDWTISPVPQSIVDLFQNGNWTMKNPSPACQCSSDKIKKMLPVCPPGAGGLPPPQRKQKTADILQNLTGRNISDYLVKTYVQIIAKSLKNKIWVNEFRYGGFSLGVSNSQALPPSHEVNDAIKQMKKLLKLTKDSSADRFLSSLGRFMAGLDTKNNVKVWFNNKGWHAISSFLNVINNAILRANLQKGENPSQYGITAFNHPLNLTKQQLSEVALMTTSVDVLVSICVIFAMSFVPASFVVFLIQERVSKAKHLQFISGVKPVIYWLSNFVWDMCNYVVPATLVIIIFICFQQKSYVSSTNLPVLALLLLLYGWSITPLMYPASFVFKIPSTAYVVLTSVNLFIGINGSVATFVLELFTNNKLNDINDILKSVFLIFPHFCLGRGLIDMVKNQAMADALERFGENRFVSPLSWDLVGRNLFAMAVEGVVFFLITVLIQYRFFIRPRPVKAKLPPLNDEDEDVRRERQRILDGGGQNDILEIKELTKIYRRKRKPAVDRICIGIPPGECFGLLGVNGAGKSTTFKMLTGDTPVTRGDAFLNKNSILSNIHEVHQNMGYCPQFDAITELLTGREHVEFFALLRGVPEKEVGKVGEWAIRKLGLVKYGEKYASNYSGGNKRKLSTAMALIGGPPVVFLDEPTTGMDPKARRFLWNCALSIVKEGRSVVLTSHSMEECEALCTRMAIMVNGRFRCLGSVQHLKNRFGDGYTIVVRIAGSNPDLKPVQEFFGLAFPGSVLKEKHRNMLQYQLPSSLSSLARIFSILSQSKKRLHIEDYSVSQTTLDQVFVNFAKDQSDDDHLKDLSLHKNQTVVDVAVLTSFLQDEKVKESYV
+ABCA1 Cells (ABCA1; [5]),−ABCA1 Cells (ABCA1; [5]),ABCA1 Mediated Efflux % Per 4 h (ABCA1; [7]),dose dependence of cholesterol efflux from cells containing the ABCA1 pathway (FIG. 3) (ABCA1),efflux of cholesterol from J774 macrophage cells (ABCA1 pathway) (ABCA1),SR-BI Mediated Efflux % Per 4 h (SR-B1; [8]),cholesterol efflux from the Fu5AH cells (SRB1 pathway) (SR-B1),Substance,aortic atherosclerosis compared to controls [1],cholesterol efflux via the ABCA-I pathway (ABCA1),PMA-induced CD11b expression in human monocytes (CD11b),other results
14.283 ± 0.545,1.205 ± 0.211,13.08 % Per 4 h,dose dependent stimulation,stimulated efflux of cholesterol,0.16 % Per 4 h,negligible or no effect,Ser Pro Leu Ser Asp Glu Lcu Arg Gln Arg Lcu Ala Ala Arg Lcu Glu Ala Leu Lys Glu Asn Lys Leu Ser Pro Leu Leu Glu Ser Phe Lys Val Ser Phe Leu Ser Ala Leu Glu Glu Tyr Thr Lys Lys Leu Asn Thr Gln (SPLSDELRQRLAARLEALKENKLSPLLESFKVSFLSALEEYTKKLNTQ) [Peptide 2],,,,"+ABCA1 Cells (ABCA1; [9]): 13.447 ± 0.549; −ABCA1 Cells (ABCA1; [9]): 1.306 ± 0.261; ABCA1 Mediated Efflux % Per 4 h (ABCA1; J774 mouse macrophage cells, peptides at 30 μg/ml, listed as 3): 12.14 % Per 4 h"
,,,,,,,apolipoprotein A-I [Apo A-I],,15.99%+2.07,decrease,cholesterol efflux from control cells (time course) [3]: no significant increase above background; +ABCA1 Cells (ABCA1; [10]): 20.682 ± 0.724; ABCA1 Mediated Efflux % Per 4 h (ABCA1; [10]): 18.97 % Per 4 h; −ABCA1 Cells (ABCA1; [10]): 1.713 ± 0.409; protein concentration at which lipid efflux begins to show saturation [4]: ~10 µg/mL; time at which cholesterol efflux from ABCA1 cells is first detectable ([4]; 30 hour efflux period): 2 h; SR-BI Mediated Efflux % Per 4 h (SR-B1; [10]): 0.26 % Per 4 h; PMA-induced CD11b expression in human monocytes (CD11b; listed as ApoA1): significantly reduced
12.420 ± 1.019,1.224 ± 0.121,11.20 % Per 4 h,dose dependent stimulation,stimulated efflux of cholesterol,0.10 % Per 4 h,negligible or no effect,SPLLESAKVSALSALEEATKKKLSPLLESFKVSFLSALEEYTKKLNTQ [Peptide 4],decrease aortic atherosclerosis,,,

Substance,+ABCA1 Cells (ABCA1; [5]),−ABCA1 Cells (ABCA1; [5]),ABCA1 Mediated Efflux % Per 4 h (ABCA1; [7]),dose dependence of cholesterol efflux from cells containing the ABCA1 pathway (FIG. 3) (ABCA1),efflux of cholesterol from J774 macrophage cells (ABCA1 pathway) (ABCA1),SR-BI Mediated Efflux % Per 4 h (SR-B1; [8]),cholesterol efflux from the Fu5AH cells (SRB1 pathway) (SR-B1),aortic atherosclerosis compared to controls [1],cholesterol efflux via the ABCA-I pathway (ABCA1),PMA-induced CD11b expression in human monocytes (CD11b),other results
Ac-Ser Pro Leu Leu Glu Ser Ala Lys Val Ser Ala Leu Ser Ala Leu Glu Glu Ala Thr Lys Lys Lys Leu Ser Pro Leu Leu Glu Ser Phe Lys Val Ser Phe Leu Ser Ala Leu Glu Glu Tyr Thr Lys Lys Leu Asn Thr Gln-NH2 (Ac-SPLLESAKVSALSALEEATKKKLSPLLESFKVSFLSALEEYTKKLNTQ-NH2) [Peptide 1],20.338 ± 0.136,1.624 ± 0.126,18.71 % Per 4 h,dose dependent stimulation,stimulated efflux of cholesterol,0.15 % Per 4 h,negligible or no effect,decrease aortic atherosclerosis,15.34%+2.57,decrease,"+ABCA1 Cells (ABCA1; [6]): 15.718 ± 0.123; −ABCA1 Cells (ABCA1; [6]): 1.215 ± 0.288; ABCA1 Mediated Efflux % Per 4 h (ABCA1; J774 mouse macrophage cells, peptides at 30 μg/ml, listed as 5): 14.50 % Per 4 h; V-CAM-1 mRNA levels in HCAECs [2]: decreases; SRB-1 pathway activity (cholesterol efflux) (SR-B1; Example 17, Fu5AH cells): no SRB-1 pathway activity; SR-BI Mediated Efflux % Per 4 h (SR-B1; FU5AH rat hepatoma cells, peptides at 30 μg/ml, listed as 5): 0.25 % Per 4 h; PMA-induced CD11b expression in human monocytes (CD11b; listed as SEQ ID NO: 602): significantly reduced; Inhibition of expression of CD11B on human monocytes (CD11b; Example 17, p=<0.01, comparable to apo A-I): statistically significant"
